{"source": "paper PMC6544384", "binders": {"B1": {"name": "bnk DNA (dsDNA)", "DNA 1": "TCCTTTTTTACTTTCATAGCTTAGGTAGTGATCTCAGGTAGTTTCCCGGAATTAAGTTAGGCTGGGTATCGCCTATCGGGAGCGGCTACCTGAACTTTTGGCACCAGCTGTCGGGGGTGAAAACTGGACCAGGTAGTCTTTAGAAGTGCACCTATATAAG", "DNA 2": "CTTATATAGGTGCACTTCTAAAGACTACCTGGTCCAGTTTTCACCCCCGACAGCTGGTGCCAAAAGTTCAGGTAGCCGCTCCCGATAGGCGATACCCAGCCTAACTTAATTCCGGGAAACTACCTGAGATCACTACCTAAGCTATGAAAGTAAAAAAGGA"}, "B2": {"name": "scute wild-type (specific competitor) (dsDNA)", "DNA 1": "GAGAGAGACTACCTGTGGCTCACT", "DNA 2": "AGTGAGCCACAGGTAGTCTCTCTC"}, "B3": {"name": "scute mutant (nonspecific competitor) (dsDNA)", "DNA 1": "GAGAGAGAGTAGTTCTGGCTCACT", "DNA 2": "AGTGAGCCAGAACTACTCTCTCTC"}}, "key": {"ZLD full-length (rZLD) [1]": {"biological_target": "T1, ZLD full-length (rZLD) (UniProt Q9VWC6 1-1596)", "T1 sequence (Q9VWC6 whole entry)": "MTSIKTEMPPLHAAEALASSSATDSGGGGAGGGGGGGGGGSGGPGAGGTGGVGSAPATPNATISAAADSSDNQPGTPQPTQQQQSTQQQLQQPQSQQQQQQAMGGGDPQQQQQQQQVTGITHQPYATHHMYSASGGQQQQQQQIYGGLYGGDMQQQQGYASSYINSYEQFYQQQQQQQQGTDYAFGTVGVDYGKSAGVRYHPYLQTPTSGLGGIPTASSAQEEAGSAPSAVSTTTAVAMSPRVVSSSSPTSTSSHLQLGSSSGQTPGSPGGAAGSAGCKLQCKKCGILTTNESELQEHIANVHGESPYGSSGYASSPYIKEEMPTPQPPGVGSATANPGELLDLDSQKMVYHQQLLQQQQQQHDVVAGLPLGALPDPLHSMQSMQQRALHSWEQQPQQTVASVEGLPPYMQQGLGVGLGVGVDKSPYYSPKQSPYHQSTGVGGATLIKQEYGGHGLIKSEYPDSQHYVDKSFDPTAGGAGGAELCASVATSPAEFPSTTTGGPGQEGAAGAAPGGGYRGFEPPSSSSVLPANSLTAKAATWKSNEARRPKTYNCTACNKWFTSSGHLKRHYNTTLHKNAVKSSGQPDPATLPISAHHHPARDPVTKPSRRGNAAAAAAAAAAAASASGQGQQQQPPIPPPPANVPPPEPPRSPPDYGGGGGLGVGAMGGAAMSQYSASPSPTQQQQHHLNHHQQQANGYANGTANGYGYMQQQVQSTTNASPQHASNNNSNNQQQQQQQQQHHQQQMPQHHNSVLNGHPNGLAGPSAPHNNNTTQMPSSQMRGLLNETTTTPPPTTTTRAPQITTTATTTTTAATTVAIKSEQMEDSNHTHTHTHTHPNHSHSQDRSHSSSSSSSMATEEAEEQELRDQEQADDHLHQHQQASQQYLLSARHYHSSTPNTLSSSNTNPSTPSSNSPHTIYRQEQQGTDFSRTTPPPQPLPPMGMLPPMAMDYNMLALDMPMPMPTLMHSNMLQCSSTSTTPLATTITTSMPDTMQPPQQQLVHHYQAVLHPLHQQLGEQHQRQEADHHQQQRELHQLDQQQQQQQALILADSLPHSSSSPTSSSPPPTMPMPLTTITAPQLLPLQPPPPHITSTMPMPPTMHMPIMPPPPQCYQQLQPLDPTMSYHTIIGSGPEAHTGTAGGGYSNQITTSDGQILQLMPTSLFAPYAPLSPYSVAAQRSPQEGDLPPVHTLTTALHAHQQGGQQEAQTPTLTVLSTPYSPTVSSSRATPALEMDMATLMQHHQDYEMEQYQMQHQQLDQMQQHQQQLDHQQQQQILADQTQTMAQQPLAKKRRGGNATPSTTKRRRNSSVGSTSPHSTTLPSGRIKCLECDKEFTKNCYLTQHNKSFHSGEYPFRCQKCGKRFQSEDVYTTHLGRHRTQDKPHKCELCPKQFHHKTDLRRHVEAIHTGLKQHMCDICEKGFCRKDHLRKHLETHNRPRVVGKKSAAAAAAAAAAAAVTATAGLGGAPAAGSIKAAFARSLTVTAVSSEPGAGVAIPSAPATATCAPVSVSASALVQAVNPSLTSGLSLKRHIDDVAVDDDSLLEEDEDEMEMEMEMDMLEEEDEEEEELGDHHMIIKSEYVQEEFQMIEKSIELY", "assay": "EMSA"}, "[2]": {"biological_target": "T2, ZLD DBD (MBP-ZLD1117-1487) (UniProt Q9VWC6 1117-1487)", "T2 sequence": "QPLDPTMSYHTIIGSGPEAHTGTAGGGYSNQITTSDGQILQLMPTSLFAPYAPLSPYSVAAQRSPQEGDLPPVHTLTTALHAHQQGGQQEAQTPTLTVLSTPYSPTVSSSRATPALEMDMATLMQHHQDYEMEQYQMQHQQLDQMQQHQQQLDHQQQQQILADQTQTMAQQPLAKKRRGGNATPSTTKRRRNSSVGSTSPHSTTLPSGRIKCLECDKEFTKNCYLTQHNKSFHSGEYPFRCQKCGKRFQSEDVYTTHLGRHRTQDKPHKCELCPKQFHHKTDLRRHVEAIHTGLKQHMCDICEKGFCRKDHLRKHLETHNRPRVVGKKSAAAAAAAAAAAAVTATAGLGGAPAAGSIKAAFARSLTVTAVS", "assay": "competition"}, "ZLD full-length (rZLD) [3]": {"biological_target": "T1, ZLD full-length (rZLD)", "assay": "competition"}, "ZLD full-length (rZLD) [4]": {"biological_target": "T1, ZLD full-length (rZLD)", "assay": "competition", "remark": "listed apart in the source"}}, "data": [{"binder": "B1", "values": [{"measurement": "binding result", "setting": "ZLD full-length (rZLD) [1]", "result": "binds"}]}, {"binder": "B2", "values": [{"measurement": "binding result", "setting": "[2]", "result": "binds"}, {"measurement": "binding result", "setting": "ZLD full-length (rZLD) [3]", "result": "binds"}]}, {"binder": "B3", "values": [{"measurement": "binding result", "setting": "ZLD full-length (rZLD) [4]", "result": "no binding"}]}]}
